Assay results as given in patent publication US20200362021A1 (PHANES THERAPEUTICS, published 2020).
Numbering of substitutions follows the chain as printed. No end group written: not given here. *: point of attachment. Biotin = O=C1N[C@H]2[C@H](CS[C@H]2CCCCC(=O)*)N1

B1: anti-apelin mAb C27 (antibody, V domains shown)
VH: QSVEESGGRLVTPGGSLTLTCTVSGIDLINAWMNWVRQAPGKGLEWIGTTTDDDTIYYANWAKGRFTISRTSTTVDLKVTSLTSEDTATYFCSKGRIWGPGTLVTVSL
VL: QVLTQTPASVSAAVGGTVTINCQASQSVYDGNWLCWYQQKPGQPPKRLIYKASTLESGVPSRFKGSGSGTQFTLTISDLECDDAATYYCQGGFTSNIYPFAGGTEVVVK
notes: recombinant rabbit IgG made in HEK293 cells
B2: anti-apelin mAb C8 (antibody, V domains shown)
VH: QSVEESGGRLVTPGTPLTLTCTVSGIDLYSNRMSWVRQAPGKGLEWIGSIGSSPWYASWAQGRFTISKTSSTTVNLKITSPTTEDTATYFCAKGGYRPGASVWGPGTLVTVSS
VL: QVLTQTESPVSAPVGGTVTIACQSSQSVYDNNDLAWYQQKAGQTPKRLIYLASSLDSGVPSRFKGSGSGTEFTLTISDLECDDAATYYCAGGYSGDIYTFGGGTEVVVE
notes: as for B1
B3: anti-apelin mAb C24 (antibody, V domains shown)
VH: QSLEESGGRLVTPGTPLTLTCTVSGIDLYTNRVSWVRQAPGKGLDWIGSIGSSPWYASWAQGRFTISKTSTTVNLKITSSTTEDTATYFCAKGGYRPGGSIWGPGTLVTVSS
VL: B2 VL with T6S, E7A, P13A, G16D, T17S, A35G, A41P, K64S, E71Q, E109K
notes: as for B1
B4: anti-apelin mAb C25 (antibody, V domains shown)
VH: B3 VH with R9G, V33M, D45E, Y56F, Q61L, S80P, G99A, I101V
VL: B2 VL with Y50F, S94N, E109K
notes: as for B1
B5: humanized anti-apelin mAb A31 (human IgG1 backbone) (antibody, V domains shown)
VH: QSLEESGGGLVQPGGSLRLSCAVSGIDLYSNRMSWVRQAPGKGLEWVGSIGSSPWYASWAQGRFTISRDNSNTVYLQMNSLTAEDTATYFCAKGGYRPGASVWGQGTLVTVSS
VL: DIQLTQSPSSLSASVGDRVTITCQSSQSIYDNNDLAWYQQKPGKTPKRLIYLASSLDSGVPSRFSGSGSGTDFTLTISSLQPEDVATYYCAGGYSGDIYTFGGGTKVEIK
notes: humanized from C8; tested as HEK293 supernatant
B6: humanized anti-apelin mAb A31 (human IgG4 backbone) (antibody, V domains shown)
VH: B5 VH
VL: B5 VL
B7: humanized anti-apelin mAb B24 (human IgG4 backbone) (antibody, V domains shown)
VH: B5 VH with A22T, S30T, M33V, Q77K, L81P, A100G, V102I
VL: B5 VL with A36G
B8: humanized anti-apelin mAb B25 (human IgG4 backbone) (antibody, V domains shown)
VH: B5 VH with A22T, S30T, Y56F, Q61L, Q77K, L81P
VL: B5 VL with S95N

Legend:
Biotin-APL17 = molecular target: T1, Biotin-APL17; test: ELISA, peptide on neutravidin plate, mAb 200 ng/ml, A405
T1 peptide: Biotin-KFRRQRPRLSHKGPMPF
Procedure: (§1) FIGS. 1A-1C show binding of anti-apelin mAbs to various biotinylated apelin peptides measured by ELISA. Biotinylated apelin peptides were immobilized on ELISA plates coated with neutravidin and purified recombinant rabbit anti-apelin mAbs were added for binding to the peptides on the plates. The binding was detected by adding a goat anti-rabbit IgG Fc-conjugated to alkaline phosphatase and PNPP substrate, and measured as the absorbance at 405 nm.
(§2) For the binding assay, neutravidin in carbonate coating buffer was coated on high binding ELISA plates at 1 μg/ml overnight. Peptides were added at 4 μg/ml after the plates were blocked with 1% BSA in TBS. After incubation of the plates at room temperature for 60 minutes, the plates were washed and then purified recombinant rabbit antibodies were added at 200 ng/ml. Following rabbit antibody binding to the peptides on the plates at room temperature for 90 minutes, goat anti-rabbit IgG Fc-conjugated to alkaline phosphatase was added, and antibody-antigen binding was detected by adding PNPP substrate and reading absorbance of ELISA plates at 405 nm. Each mAb was assayed in duplicate.

[1] = molecular target: T2, pyr-apelin-13-biotin (pE-RPRLSHKGPMPF-biotin) (N-terminal pyroglutamate (pE); C-terminal biotin); test: as above
T2 construct: also called pyrAPL13-Biotin
T2 peptide: ERPRLSHKGPMPF
Procedure: as §1, §2

[2] = molecular target: T3, biotin-apelin-13 (biotin-…) (N-terminal biotin); test: SPR (Biacore), biotin-apelin-13 on streptavidin CM5 chip, mAb at 12.5-100 nM
T3 construct: also called Biotin-APL13
Procedure: Anti-apelin mAbs at four different concentrations (12.5 nM, 25 nM, 50 nM and 100 nM) were captured on the chip surface. The on- and off-rate for antibody-antigen binding were measured, curve fitted and calculated.

[3] = molecular target: T4, apelin peptide 2-13 (RPRLSHKGPMPF); test: competition ELISA, captured mAb, peptide competes with biotin-apelin-13, A405
T4 peptide: RPRLSHKGPMPF
Procedure: (§3) Goat anti-rabbit IgG was immobilized on an ELISA plate. […] Several competition peptides were used as controls.
(§4) For the peptide competition assay, goat anti-rabbit IgG in carbonate coating buffer was coated on high binding ELISA plates at 1 μg/ml overnight. […] After incubation at room temperature for 60 minutes, the plates were washed and then streptavidin-conjugated to alkaline phosphatase was added, and the binding was detected by adding PNPP substrate and reading absorbance of ELISA plates at 405 nm. Each competition peptide or control sample was assayed in duplicate for a given mAb. […] “No comp:” no competition peptide was added; “No Ab, No Comp:” neither competition peptide nor anti-apelin mAb was added.

[4] = molecular target: T5, alanine scanning peptide 10A (KGAMPF); test: as above
T5 peptide: KGAMPF
Procedure: as §3, §4

[5] = molecular target: alanine scanning peptide 9A (KAPMPF); test: as above
Procedure: as §3, §4

[6] = molecular target: alanine scanning peptide 8A (AGPMPF); test: as above
Procedure: as §3, §4

[7] = molecular target: T6, apelin peptide 4-13 (RLSHKGPMPF); test: as above
T6 peptide: RLSHKGPMPF
Procedure: (§5) Goat-anti-rabbit IgG was immobilized on an ELISA plate.
(§6) The antibody binding sites for anti-apelin mAbs C8, C24, and C25 were mapped using an ELISA-based peptide competition assay. […] Each of the competition peptides (Table 7) was assessed for its ability to inhibit biotin-apelin-13 binding to the mAb. An inhibition signal reflects the ability of the competition peptide to bind to the mAb in solution.
as §4

[8] = molecular target: T7, apelin peptide 8-13 (KGPMPF); test: as above
T7 peptide: KGPMPF
Procedure: as §5, §6, §4

[9] = molecular target: T8, apelin peptide 5-13 (LSHKGPMPF); test: as above
T8 peptide: LSHKGPMPF
Procedure: as §5, §6, §4

[10] = molecular target: T9, apelin peptide 1-12 (QRPRLSHKGPMP); test: as above
T9 peptide: QRPRLSHKGPMP
Procedure: as §5, §6, §4

[11] = molecular target: T10, apelin peptide 3-13 (PRLSHKGPMPF); test: as above
T10 peptide: PRLSHKGPMPF
Procedure: as §5, §6, §4

[12] = molecular target: T11, apelin peptide 6-13 (SHKGPMPF); test: as above
T11 peptide: SHKGPMPF
Procedure: as §5, §6, §4

[13] = molecular target: T12, apelin peptide 7-13 (HKGPMPF); test: as above
T12 peptide: HKGPMPF
Procedure: as §5, §6, §4

10-13 = molecular target: T13, 10-13; test: as above
T13 construct: also called apelin peptide 10-13 (PMPF)
T13 peptide: PMPF
Procedure: as §5, §6, §4

9-13 = molecular target: T14, 9-13; test: as above
T14 construct: also called apelin peptide 9-13 (GPMPF)
T14 peptide: GPMPF
Procedure: as §5, §6, §4

[14] = molecular target: T15, alanine scanning peptide 13A (KGPMPA); test: as above
T15 peptide: KGPMPA
Procedure: as §3, §4

[15] = molecular target: T3, biotin-apelin-13 (biotin-…); test: SPR (Biacore) with biotin-apelin-13, humanized IgG1 mAb in HEK293 supernatant
Excerpt: The rabbit anti-apelin mAb C8 was humanized to reduce the potential of immunogenicity when used in human patients. The sequences of the variable regions of the heavy and light chains (VH and VL) were compared with the human antibody sequences in the Protein Data Bank (PDB) database and a homology model was built by applying SWISS-modeling. The CDRs in both the heavy and light chains of the rabbit mAb were grafted into human frameworks that have the highest possibility of maintaining the proper structure likely required for antigen binding. Backmutations from human residue to rabbit residue were designed when necessary. The sequences of the humanized VH and VL regions are shown in Table 11 and Table 12, respectively. The humanized VH and VL regions were fused to human IgG1 heavy chain and kappa light chain constant regions, respectively, to generate humanized mAbs. Constructs corresponding to the mAb sequences were used for transient transfection in HEK 293 cells and the supernatants were analyzed for the affinity of each humanized mAb for apelin.

pyro-apelin 13 = molecular target: T16, pyro-apelin 13 (N-terminal pyroglutamate); test: cell-based or functional assay
T16 peptide: ERPRLSHKGPMPF

[16] = molecular target: apelin 13 (competition peptide 1-13, …); test: cell-based or functional assay
[17] = molecular target: T3, biotin-apelin-13 (biotin-…); test: ELISA, increasing concentrations of IgG4 mAb immobilized on plate, biotin-apelin-13 added, streptavidin-AP detection
Excerpt: Two additional humanized mAbs (B24 and B25) were generated with sequence modifications on A31. […] The binding was then detected by adding PNPP substrate and reading absorbance of the ELISA plates at 405 nm.

Binder	Kd [2]	binding result [3]	binding result [4]	binding result [5]	binding result [6]	binding result [7]	binding result [8]	binding result [9]	binding result [10]	binding result [11]	binding result [12]	binding result [13]	binding result (10-13)	binding result (9-13)	EC50 [17]	also measured
B1	589 pM	–	–	–	–	–	–	–	–	–	–	–	–	–	–	binding result (Biotin-APL17): binds; binding result [1]: no binding (tested: 200 ng/ml)
B2	17.4 pM	binds	binds	binds	binds	binds	binds	binds	no binding (tested: peptide concentration not stated)	binds	binds	binds	binds	binds	–	–
B3	0.401 pM	binds	binds	binds	binds	binds	binds	binds	no binding (tested: peptide concentration not stated)	binds	binds	binds	binds	binds	–	binding result [14]: no binding (tested: peptide concentration not stated)
B4	50.8 pM	binds	binds	binds	binds	binds	binds	binds	no binding (tested: peptide concentration not stated)	binds	binds	binds	binds	binds	–	binding result [14]: no binding (tested: peptide concentration not stated)
B5	–	–	–	–	–	–	–	–	–	–	–	–	–	–	–	Kd [15]: 0.148 pM; IC50 (pyro-apelin 13): 19900 pM; IC50 [16]: 25000 pM
B6	–	–	–	–	–	–	–	–	–	–	–	–	–	–	210 pM	–
B7	–	–	–	–	–	–	–	–	–	–	–	–	–	–	790 pM	–
B8	–	–	–	–	–	–	–	–	–	–	–	–	–	–	470 pM	–
